# T1: recombinant human complement C2 (NP_000054.2), C-terminal 6His-tag, made in house (CHO cell expression) (human, UniProt P06681 21-752)
# T1 construct: a linker before the tag is not described; also called human C2; Human C2
# T1 sequence: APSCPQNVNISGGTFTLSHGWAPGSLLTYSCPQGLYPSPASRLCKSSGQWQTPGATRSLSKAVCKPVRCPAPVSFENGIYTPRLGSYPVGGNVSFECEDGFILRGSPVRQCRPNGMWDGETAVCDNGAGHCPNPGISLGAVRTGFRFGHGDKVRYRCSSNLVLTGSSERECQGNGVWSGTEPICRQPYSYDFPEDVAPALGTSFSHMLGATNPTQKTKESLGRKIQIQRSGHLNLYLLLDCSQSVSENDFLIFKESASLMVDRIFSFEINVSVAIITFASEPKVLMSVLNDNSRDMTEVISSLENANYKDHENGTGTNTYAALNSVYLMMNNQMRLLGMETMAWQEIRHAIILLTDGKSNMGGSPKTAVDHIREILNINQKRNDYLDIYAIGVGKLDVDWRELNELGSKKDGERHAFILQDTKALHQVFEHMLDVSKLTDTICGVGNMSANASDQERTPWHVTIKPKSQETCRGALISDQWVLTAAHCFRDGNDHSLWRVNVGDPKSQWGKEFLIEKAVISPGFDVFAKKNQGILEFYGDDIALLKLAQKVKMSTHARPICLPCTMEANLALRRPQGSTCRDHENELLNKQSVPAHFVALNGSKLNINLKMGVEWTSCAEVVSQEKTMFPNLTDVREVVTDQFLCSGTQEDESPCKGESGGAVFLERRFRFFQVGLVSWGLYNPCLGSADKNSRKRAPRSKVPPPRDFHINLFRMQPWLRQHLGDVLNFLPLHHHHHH
# T2: recombinant cynomolgus (cyno) complement C2 (XP_005553508.1), C-terminal 6His-tag, made in house (CHO cell … (cynomolgus monkey (Macaca fascicularis), UniProt P06681 21-752 (human entry)))
# T2 construct: also called cyno C2; Cyno C2
# T2 chain: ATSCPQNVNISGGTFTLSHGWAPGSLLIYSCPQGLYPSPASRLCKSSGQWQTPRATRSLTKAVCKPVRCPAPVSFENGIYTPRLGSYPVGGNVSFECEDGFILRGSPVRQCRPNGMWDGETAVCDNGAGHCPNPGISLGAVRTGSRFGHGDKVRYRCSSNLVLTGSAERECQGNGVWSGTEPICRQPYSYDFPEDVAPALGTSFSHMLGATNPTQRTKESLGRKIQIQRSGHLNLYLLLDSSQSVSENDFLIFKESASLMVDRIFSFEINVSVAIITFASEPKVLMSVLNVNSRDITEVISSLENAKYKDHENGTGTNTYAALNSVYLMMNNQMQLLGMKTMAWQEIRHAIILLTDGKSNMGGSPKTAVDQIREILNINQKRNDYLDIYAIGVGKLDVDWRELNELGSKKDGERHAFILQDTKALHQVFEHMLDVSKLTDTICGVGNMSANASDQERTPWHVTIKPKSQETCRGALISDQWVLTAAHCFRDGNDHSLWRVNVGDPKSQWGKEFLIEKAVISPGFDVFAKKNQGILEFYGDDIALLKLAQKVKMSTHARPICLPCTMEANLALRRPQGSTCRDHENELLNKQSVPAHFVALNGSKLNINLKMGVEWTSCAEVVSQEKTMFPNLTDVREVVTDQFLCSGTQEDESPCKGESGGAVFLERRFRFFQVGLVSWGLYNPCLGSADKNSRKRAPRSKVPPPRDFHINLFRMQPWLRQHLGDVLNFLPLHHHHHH
# T3: human complement C2 in normal human serum (human, UniProt P06681 21-752)
# T3 sequence: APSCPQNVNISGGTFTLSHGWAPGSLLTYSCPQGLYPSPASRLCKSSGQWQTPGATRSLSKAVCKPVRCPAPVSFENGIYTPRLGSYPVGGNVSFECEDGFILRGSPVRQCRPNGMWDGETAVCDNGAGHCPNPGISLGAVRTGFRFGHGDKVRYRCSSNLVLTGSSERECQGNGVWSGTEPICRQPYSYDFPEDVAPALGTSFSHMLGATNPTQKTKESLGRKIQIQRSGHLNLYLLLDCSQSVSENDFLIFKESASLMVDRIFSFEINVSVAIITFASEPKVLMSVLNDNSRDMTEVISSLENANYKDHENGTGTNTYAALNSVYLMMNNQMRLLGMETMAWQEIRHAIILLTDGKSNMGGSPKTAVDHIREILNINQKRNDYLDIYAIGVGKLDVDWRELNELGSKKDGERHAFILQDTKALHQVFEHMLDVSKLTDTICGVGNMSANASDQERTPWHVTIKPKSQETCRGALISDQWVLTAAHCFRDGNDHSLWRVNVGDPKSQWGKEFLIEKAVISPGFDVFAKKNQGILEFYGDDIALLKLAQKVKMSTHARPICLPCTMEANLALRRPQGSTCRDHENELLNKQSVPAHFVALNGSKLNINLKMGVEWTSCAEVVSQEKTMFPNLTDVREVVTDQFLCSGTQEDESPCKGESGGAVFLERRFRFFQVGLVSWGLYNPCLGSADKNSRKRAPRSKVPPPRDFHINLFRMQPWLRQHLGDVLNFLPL
# B1: anti-C2 antibody 69.44 (antibody, IgG4, V domains shown)
# VH: QVQLVQSGAEVKKPGASVKVSCKASGYSFTTYYMYWVRQAPGQGLEWMGIITPSGGSTTYAQKFQDRVTMTRDASTTTVYMELSSLRSEDTAVYYCARGYEGSYGFDHWGQGTLVTVSS
# VL: SYELTQPPSVSLSPGQTASITCSGDKLGNKYTCWYQQKPGQSPVLVIYQDNKRPSGIPERFSGSNSGNTATLTISGTQAMDEADYYCQTWDSSTAVFGGGTKLTVL
# notes: Recombinant
# B2: anti-C2 antibody 3.2 (antibody, IgG4, V domains shown)
# VH: EVQLLESGGGLVQPGGSLRLSCAASGFTFRHYAMSWVRQAPGKGLEWVSLISGSGASTFYADSVKGRFTISRDNSENMLYLQMNSLRAEDTAVYYCAKDSLAVAGSEYFQHWGQGTLVTVSS
# VL: SYVLTQAPSVSVAPGQTARITCGGNYFGGKSVHWYQQRPGQAPVLVVYDDSDRPSGIPERFSGSKSGNTATLAISRVEAGDEAAYYCQVYDTSSDHWVFGGGTKLTVL
# notes: Recombinant; also called WT; "WT" 3.2
# Assays:
# [1] = target: T1, recombinant human complement C2 …; experiment: BLI (Gator), antibody on probe; 600 s association at pH 7.4, 600 s dissociation at pH 5.8
# Description: (§1) The histidine mutant constructs in Table 4 were tested for their pH-dependent dissociation from human C2. Probe-immobilized anti-C2 antibodies were incubated with C2 at pH 7.4 for 600s, followed by a 600s dissociation period in K Buffer at pH 7.4 or pH 5.8. The data were processed and analyzed by the Gator evaluation software.
# (§2) Non-fusion mAb were used for comparison.
# [2] = target: T2, recombinant cynomolgus (cyno) …; experiment: as above
# Description: as §1, §2
# [3] = target: T1, recombinant human complement C2 …; experiment: BLI (Gator); ratio of dissociation at pH 5.8 to pH 7.4
# Description: as §1, §2
# [4] = target: T1, recombinant human complement C2 …; experiment: BLI (Gator), antibody on probe; 600 s association at pH 7.4, 600 s dissociation at pH 7.4
# Description: as §1, §2
# [5] = target: T2, recombinant cynomolgus (cyno) …; experiment: as above
# Description: as §1, §2
# [6] = target: T3, human complement C2 in normal human …; experiment: cell-based or functional assay
Binder,Dissociation (%) pH 5.8 [1],Dissociation (%) pH 5.8 [2],Fold dissociation pH 5.8/pH 7.4 [3],Dissociation (%) pH 7.4 [4],Dissociation (%) pH 7.4 [5],"IC50, inhibition of sheep RBC lysis, 5% serum [6]"
B1,2.45%,7.22%,0.78 fold,3.15%,4.81%,2.8 nM
B2,10.4%,14.5%,1.97 fold,5.27%,5.37%,2.9 nM
